One protein from paper PMC11052993, “Functional implication of the homotrimeric multidomain vacuolar sorting receptor 1 (VSR1) from Arabidopsis thaliana” (Scientific Reports, 2024) can be followed below.

The data set concerns the molecule itself. Description: crystal structure; space group P2(1)3, one molecule in the asymmetric unit, trimer built by crystallographic three-fold symmetry; 3.5 Å dataset, molecular replacement with PDB 4TJV.

B1: luminal domain of vacuolar sorting receptor 1 (VSR1) from Arabidopsis thaliana, residues 1 to 560 (domain or fragment, UniProt P93026 23-560, looked up)
chain: VEKNNLKVTSPDSIKGIYECAIGNFGVPQYGGTLVGTVVYPKSNQKACKSYSDFDISFKSKPGRLPTFVLIDRGDCYFTLKAWIAQQAGAAAILVADSKAEPLITMDTPEEDKSDADYLQNITIPSALITKTLGDSIKSALSGGDMVNMKLDWTESVPHPDERVEYELWTNSNDECGKKCDTQIEFLKNFKGAAQILEKGGHTQFTPHYITWYCPEAFTLSKQCKSQCINHGRYCAPDPEQDFTKGYDGKDVVVQNLRQACVYRVMNDTGKPWVWWDYVTDFAIRCPMKEKKYTKECADGIIKSLGIDLKKVDKCIGDPEADVENPVLKAEQESQIGKGSRGDVTILPTLVVNNRQYRGKLEKGAVLKAMCSGFQESTEPAICLTEDLETNECLENNGGCWQDKAANITACRDTFRGRLCECPTVQGVKFVGDGYTHCKASGALHCGINNGGCWRESRGGFTYSACVDDHSKDCKCPLGFKGDGVKNCEDVDECKEKTVCQCPECKCKNTWGSYECSCSNGLLYMREHDTCIGSGKVG
modifications: N-glycosylation at Asn289 (two N-acetylglucosamine)
notes: signal peptide in the construct; vacuolar sorting receptor 1 (VSR1), Arabidopsis thaliana, luminal part, residues 1 to 560; the model of the structure runs from Phe21 to Ala465 (Ser120-Asp137 disordered); Trimer by crystallographic three-fold symmetry; one molecule in the asymmetric unit; also called AtVSR1; full-length VSR1 luminal domain
The term stoichiometry N denotes a count of units in the complex or per binding partner. With B1, the “stoichiometry N” value came to 3.
